The record followed here is publication PMC3045603.

In test [1] the target is yeast ScNep1^D90G (Bowen-Conradi syndrome mutation) with an N-terminal hexahistidine tag (S. cerevisiae) (UniProt Q06287). The test is described as follows: SEC. In general terms: In gel filtration, larger molecules generally elute earlier.
Test [2] addresses wild-type yeast ScNep1 with an N-terminal hexahistidine tag (S. cerevisiae) (UniProt Q06287). The test is described as follows: SEC.

In test [1], “yeast ScNep1^D90G (Bowen-Conradi syndrome mutation) with an N-terminal hexahistidine tag (from UniProt Q06287 1-252) (enzyme)” showed a Kd of 5.8 µM and a stoichiometry N of 2. Consider “wild-type yeast ScNep1 with an N-terminal hexahistidine tag (from UniProt Q06287 1-252) (enzyme)”, for which the Kd in test [2] worked out at 134 µM.

One may read the Kd as the concentration at which binding is half-saturated. A higher Kd goes with weaker binding. A word on the stoichiometry N: it is the number of molecules, sites or subunits per partner or assembly.
